Test results: the supplement of paper PMC9732359
± gives the uncertainty stated by the source.

Experiment: protein stability index of a GFP-peptide fusion (yeast GPS) (PSI 1-4); higher = more stable; sorted into four equal gates, so the index is relative within each strain
Procedure, shortened: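 Plasmids in a pooled yeast library fused tiled 17-residue yeast protein peptides downstream of GFP and also expressed Cherry. Mid-log cultures grown without leucine were sorted into four equal gates by GFP/Cherry fluorescence ratio. Each gate's plasmids were PCR-amplified and Illumina-sequenced, and reads were matched to strains by barcodes. The protein stability index is derived by multiplying each gate's read frequency by its gate number and summing the results.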

Row | Sequence | protein stability index (doa10∆) | protein stability index (pdr5∆) | protein stability index (san1∆) | protein stability index (ubr1∆)
1 | DDPFMTKSGATTSEKQE [GAL11] | 2.97 ± 0.18 | 3.26 ± 0.13 | 2.82 ± 0.23 | 
2 | ASNEVIAKSRYWYFLQK [RPL20A] | 2.19 ± 0.054 | 2.66 ± 0.066 | 2.58 ± 0.063 | 2.72 ± 0.058
3 | KLLATSTKIIMLLLNDS [SRB8] | 1.57 ± 0.065 | 1.46 ± 0.059 | 1.48 ± 0.16 | 1.23 ± 0.071
4 | NRRGMLALSGTSASNTS [SNF5] | 3.02 ± 0.064 | 3.1 ± 0.064 | 2.86 ± 0.064 | 2.92 ± 0.066
5 | RRFYKNWYKSKKKAFTK [RPL3] | 2.98 ± 0.16 | 2.8 ± 0.11 | 1.6 ± 0.2 | 1.78 ± 0.08
6 | LHANGASFFFMVMFMHM [COB] | 1.75 ± 0.037 | 1.36 ± 0.028 | 1.37 ± 0.065 | 1.38 ± 0.036
7 | KNFSPTKRVEKPQLKFK [RRP6] | 2.33 ± 0.093 | 2.17 ± 0.1 | 2.39 ± 0.1 | 3.21 ± 0.075
8 | QQSNKLHCCIQLLMGDI [RPN3] | 1.72 ± 0.045 | 1.99 ± 0.068 | 2 ± 0.064 | 1.84 ± 0.054
9 | ASKGRTKIDMPIKNRKN [BRN1] | 3.21 ± 0.11 | 3.13 ± 0.088 | 2.91 ± 0.12 | 3.17 ± 0.1
10 | GSLKLPNCPRPNMSICI [RPL1A] | 2.62 ± 0.082 | 2.67 ± 0.05 | 2.95 ± 0.065 | 2.98 ± 0.05
11 | ILYSFKLSGKLLKEEKI [YML103C/NUP188] | 1.4 ± 0.059 | 1.6 ± 0.063 | 2.11 ± 0.1 | 2.49 ± 0.1
12 | QIRDVMERFSVLCNSNI [RRP6] | 2.41 ± 0.11 | 2.82 ± 0.11 | 2.18 ± 0.15 | 2.38 ± 0.084
13 | LTKYKEMERIVKNLTKY [SRP68] | 2.96 ± 0.069 | 2.85 ± 0.073 | 2.82 ± 0.04 | 2.78 ± 0.041
14 | LISSSLSNLSKDIKANL [YCS4] | 2.26 ± 0.057 | 1.72 ± 0.061 | 1.87 ± 0.1 | 2.35 ± 0.067
15 | IGDKFASRHGQKGTIGI [RPB2] | 1.34 ± 0.07 | 1.96 ± 0.047 | 1.57 ± 0.16 | 1.1 ± 0.041
16 | ANLLPARQFGYVILTTS [RPS22A] | 1.29 ± 0.053 | 1.35 ± 0.044 | 1.2 ± 0.094 | 1.11 ± 0.046
17 | SAFACKTDEVIILGTNL [BRR2] | 2.86 ± 0.054 | 3 ± 0.043 | 2.94 ± 0.04 | 2.9 ± 0.035
18 | AGDIQLQYGWKVERHIM [RPO21] | 1.18 ± 0.067 | 1.24 ± 0.12 | 1.36 ± 0.19 | 1.24 ± 0.098
19 | LSESDKKSKLISLYLLN [RPN12] | 2.21 ± 0.17 | 3 ± 0.1 | 2.07 ± 0.21 | 2.31 ± 0.063
20 | NKTDAQAPTTGFSFGSQ [YJL041W/NSP1] | 2.91 ± 0.064 | 2.98 ± 0.06 | 3.28 ± 0.077 | 3.07 ± 0.069
21 | NGASVPINLHPSKLVIT [RPL26A] | 1.75 ± 0.058 | 1.83 ± 0.06 | 1.96 ± 0.067 | 1.41 ± 0.05
22 | KCLVEKSICFENCLNND [SWI1] | 1.81 ± 0.097 | 2.67 ± 0.057 | 2.69 ± 0.064 | 2.61 ± 0.078
23 | KPIYKDTRFGGRMDMTR [SSN2] | 3.1 ± 0.17 | 3.36 ± 0.14 | 3.33 ± 0.068 | 3.4 ± 0.14
24 | DRKKDKNVKHSGNIQLD [RPL12A] | 3.31 ± 0.12 | 3.46 ± 0.17 | 3.38 ± 0.073 | 3.18 ± 0.096
25 | MKLVPSIPPATIETFNE [RPB5] | 2.41 ± 0.053 | 2.41 ± 0.06 | 2.11 ± 0.051 | 2.57 ± 0.049
26 | RKLMEMENILQRCKSNA [YIL149C/MLP2] | 2.04 ± 0.072 | 2.39 ± 0.086 | 2 ± 0.096 | 1.38 ± 0.095

Row | Sequence | protein stability index (doa10∆) | protein stability index (pdr5∆) | protein stability index (san1∆) | protein stability index (ubr1∆)
27 | GYCDDIAAMVAQKCGWT [SIR2] | 1.76 ± 0.11 | 1.9 ± 0.094 | 2.44 ± 0.16 | 1.74 ± 0.052
28 | SNNELVRTNTLTKAAIV [RPS8A] | 2.842 ± 0.022 | 3.046 ± 0.022 | 2.724 ± 0.022 | 3.021 ± 0.018
29 | AVSIETALEHKVVNGNS [FAS2] | 2.14 ± 0.18 | 1.37 ± 0.1 | 1.34 ± 0.12 | 1.4 ± 0.051
30 | NDNIGANRSRFNNEAPP [SMB1] | 2.64 ± 0.076 | 3.02 ± 0.047 | 2.54 ± 0.065 | 3.01 ± 0.067
31 | PEYYSTARVMGGLKNGV [DIS3] | 3.15 ± 0.093 | 3.24 ± 0.1 | 3.23 ± 0.052 | 3.01 ± 0.082
32 | RSLATAVATPKAEVTQL [COR1] | 2.99 ± 0.1 | 3.09 ± 0.13 | 2.98 ± 0.092 | 2.89 ± 0.042
33 | NGGVGVDVELITSINVE [FAS2] | 2.93 ± 0.051 | 3.18 ± 0.056 | 3.11 ± 0.05 | 3.13 ± 0.05
34 | FDIIEESFKGLQPFWFR [ECM29] | 2.63 ± 0.11 | 2.58 ± 0.15 | 2.35 ± 0.17 | 2.21 ± 0.11
35 | INESAENFSNGISLVME [MED1] | 3.35 ± 0.11 | 3.16 ± 0.07 | 3.07 ± 0.055 | 3.1 ± 0.045
36 | RRLDALVEKVYARFKND [ITC1] | 3.29 ± 0.16 | 1.93 ± 0.083 | 2.69 ± 0.078 | 2.29 ± 0.097
37 | ITHPGKMELVYVSDSDD [SIR4] | 3.24 ± 0.077 | 3.34 ± 0.075 | 3.31 ± 0.085 | 3.25 ± 0.073
38 | MLMSKIGDVDGLIVNPV [POP5] | 2.57 ± 0.051 | 2.58 ± 0.056 | 2.47 ± 0.041 | 2.42 ± 0.04
39 | MTMLTPNYLHLVSSYLN [YML103C/NUP188] | 1.82 ± 0.039 | 1.66 ± 0.035 | 1.69 ± 0.051 | 1.4 ± 0.032
40 | KTQQNEKSENGENDDDT [RPN3] | 3.04 ± 0.19 | 3.41 ± 0.18 | 2.92 ± 0.13 | 3.34 ± 0.11
41 | HPAHVMWSVARAGQRGY [RPL3] | 1.68 ± 0.2 | 1.83 ± 0.22 | 1.5 ± 0.13 | 1.24 ± 0.12
42 | LGPLSYQNMAFITAKDK [YJR042W/NUP85] | 2.43 ± 0.075 | 2.22 ± 0.088 | 2.26 ± 0.079 | 2.31 ± 0.058
43 | PSTRSNFILEVFGTIIP [YJL039C/NUP192] | 1.35 ± 0.085 | 1.41 ± 0.071 | 1.28 ± 0.23 | 1.35 ± 0.072
44 | RYVNLLGVTYSSPTLAT [PRE4] | 1.12 ± 0.11 | 1.35 ± 0.13 | 1.47 ± 0.17 | 1.1 ± 0.12
45 | KYHYKEEWLNTKDPDEQ [CSN9] | 2.86 ± 0.086 | 3.05 ± 0.099 | 3.05 ± 0.057 | 3.05 ± 0.093
46 | KAPLQPNSERETDHANT [IRR1] | 2.6 ± 0.083 | 2.98 ± 0.062 | 2.59 ± 0.068 | 2.88 ± 0.047
47 | GKKLTDEINTAQDKWHL [RET1] | 3.22 ± 0.1 | 3.18 ± 0.084 | 3.09 ± 0.054 | 2.95 ± 0.13
48 | VAEIEKTADVKRQYVKQ [RPL20A] | 3.33 ± 0.13 | 3.2 ± 0.088 | 2.94 ± 0.13 | 3.1 ± 0.079
49 | GLGVLTHRNKDGTGVRV [FAS1] | 3.12 ± 0.066 | 2.47 ± 0.094 | 3.58 ± 0.082 | 3.27 ± 0.085
50 | SMINSVSPTNVMGTPLT [PGD1] | 2.8 ± 0.053 | 2.94 ± 0.059 | 2.73 ± 0.042 | 2.84 ± 0.047
51 | KVAEVKKLEGTIEYQKL [RPT4] | 3.13 ± 0.12 | 3.16 ± 0.11 | 3.17 ± 0.074 | 3.57 ± 0.082
